The source of these data is patent US20060210567A1 (AstraZeneca / MedImmune, published 2006).

To fix the notation:
B1: PD1-35 IgG (antibody, V domains shown)
VH: QVQLQESGPGLVKPSQTLSLTCTVSGGSISSGAYYWSWIRQHPGKGLEWIGYIYYNGNTYYNPSLRSLVTISVDASKNQFSLKLSSVTAADTAVYYCARASDYVWGGYRYMDAFDIWGRGTLITVSS
VL: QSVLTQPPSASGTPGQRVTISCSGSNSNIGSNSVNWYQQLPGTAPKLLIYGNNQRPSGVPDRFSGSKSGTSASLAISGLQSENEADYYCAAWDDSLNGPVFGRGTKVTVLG
notes: also called PD-35
B2: PD1-28 IgG (antibody, V domains shown)
VH: EVQLVQSGAEVKKPGASVKVSCKASGYRFTSYGISWVRQAPGQGLEWMGWISAYNGNTNYAQKLQGRVTMTTDTSTNTAYMELRSLRSDDTAVYYCARDADYSSGSGYWGQGTLVTVSS
VL: SYELTQPPSVSVSPGQTARITCSGDALPKQYAYWYQQKPGQAPVMVIYKDTERPSGIPERFSGSSSGTKVTLTISGVQAEDEADYYCQSADNSITYRVFGGGTKVTVL
B3: PD1-17 IgG (antibody, V domains shown)
VH: QVQLQESGPGVVKPSGTLSLTCAISGGSIGSGGSIRSTRWWSWVRQSPGKGLEWIGEIYHSGSTNYNPSLKSRVTISLDKSRNHFSLRLNSVTAADTAVYYCARQDYGDSGDWYFDLWGKGTMVTVSS
VL: NFMLTQPHSVSESPGKTVTISCTRSSGSIASNSVQWYQQRPGSSPTTVIYEDNQRPSGVPDRFSGSIDSSSNSASLTVSGLKTEDEADYYCQSSDSSAVVFGSGTKLTVL
notes: also called anti-PD-1 antibody PD1-17
B4: PD1-33 IgG (antibody, V domains shown)
VH: QVQLVQSGAEVKKPGASVRVSCKASGYTLTSYYIHWVRQAPGQGLEWMGIINPRGATISYAQKFQGRVTMTRDTSTSTVYMELRNLKSEDTALYYCATAGIYGFDFDYWGRGTLVTVSS
VL: QSALTQPASVSGSPGQSITISCTGTSNDVGGYNYVSWYQHHPGKAPKLIIYDVTNRPSGVSDRFSGSKSGNTASLTISGLLAEDEGDYYCSSYTIVTNFEVLFGGGTKLTV
B5: PD1-28 scFv (scFv, V domains shown)
VH: B2 VH
VL: B2 VL
notes: not shown: scFv linker and domain order
B6: PD1-17 scFv (scFv, V domains shown)
VH: B3 VH
VL: B3 VL
notes: as for B5

The target of the first experiment is T1, human PD-1 fusion protein (human, UniProt Q15116 25-170).
T1 construct: also called Soluble PD-1 fusion protein; human PD-1/IgG chimera; not shown: fusion partner (IgG part of the chimera)
T1 sequence (Q15116 other isoform, or with tags, fused parts or gaps): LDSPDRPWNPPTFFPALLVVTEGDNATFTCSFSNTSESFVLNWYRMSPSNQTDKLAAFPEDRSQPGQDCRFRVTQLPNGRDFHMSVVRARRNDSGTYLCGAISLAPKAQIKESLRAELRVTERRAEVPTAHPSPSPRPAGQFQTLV
As to the kind of experiment: IgG titrated; inhibition of biotinylated human PD-L1 fusion binding to plate-bound human PD-1 fusion.
In the case of B1, the IC50 turned out to be 2.3 nM.
On the same count and under the same terms, to B2 belongs 1.4 nM; to B3, 2.5 nM; to B4, 1.8 nM.

The next experiment deals with T1, human PD-1 fusion protein. As to the kind of experiment: purified scFv titrated; inhibition of biotinylated human PD-L1 fusion binding to plate-bound human PD-1 fusion. Here is the method:
ScFv production was induced by addition of 1 mM IPTG to exponentially growing cultures and incubation overnight at 30° C. Crude scFv-containing periplasmic extracts were obtained by subjecting the bacterial pellets from the overnight induction to osmotic shock. Pellets were resuspended in 20% (w/v) sucrose, 50 mM Tris-HCl, pH 7.5, 1 mM EDTA and cooled on ice for 30 minutes. Cellular debris was removed by centrifugation, and the scFv was purified by chromatography and buffer-exchanged into PBS. Purified scFv's (PD1-17, PD1-28, PD1-33, and PD1-35) were tested for the ability to inhibit the binding of biotinylated human PD-L1 fusion protein to human PD-1 fusion protein immobilized on plastic in a 96 well microtiter plate assay. Binding of biotinylated PD-L1 fusion protein was detected with AMDEX-alkaline phosphatase, and the signal generated was measured by reading the absorbance at 405 nm using a microtiter plate reader. Data was expressed as a percentage of the total binding and a titration of scFv concentrations was tested to establish clone potency as calculated IC₅₀ values.
Take B5: the IC50 was 560 nM.
Same read-out and setting: the figure for B6 is 726 nM.
